Laboratory results: patent US20260125457A1 (Janssen / Centocor, published 2026)

What was measured:
[1] = biological target: T1, thrombopoietin receptor (MPL) on cells without CALRmut (UniProt P40238 26-635, limits assumed); assay: flow cytometry on ELF-153 MPL cells, 1 h at 37 C, AF647 secondary antibody, Geometric Mean
T1 construct: whole, on cells; endogenous on healthy donor CD34+ cells; also called TPOR
T1 sequence (looked up): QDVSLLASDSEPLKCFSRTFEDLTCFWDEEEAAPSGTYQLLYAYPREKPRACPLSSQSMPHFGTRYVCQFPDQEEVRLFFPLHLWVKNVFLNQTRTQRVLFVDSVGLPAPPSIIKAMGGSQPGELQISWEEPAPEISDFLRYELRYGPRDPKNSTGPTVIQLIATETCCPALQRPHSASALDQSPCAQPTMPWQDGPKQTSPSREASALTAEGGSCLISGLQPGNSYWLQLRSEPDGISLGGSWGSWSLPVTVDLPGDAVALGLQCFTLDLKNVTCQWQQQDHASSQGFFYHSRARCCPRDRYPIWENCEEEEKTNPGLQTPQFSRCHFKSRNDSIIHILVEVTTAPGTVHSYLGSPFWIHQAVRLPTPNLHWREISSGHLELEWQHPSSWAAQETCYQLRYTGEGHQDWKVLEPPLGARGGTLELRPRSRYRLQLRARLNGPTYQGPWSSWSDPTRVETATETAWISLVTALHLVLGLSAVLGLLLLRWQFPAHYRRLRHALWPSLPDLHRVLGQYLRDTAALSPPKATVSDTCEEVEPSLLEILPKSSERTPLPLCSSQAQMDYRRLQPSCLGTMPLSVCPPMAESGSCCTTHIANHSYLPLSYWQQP

[2] = biological target: T2, Flag/6xhis-CALRdel52 (CALRW12.007) (human, UniProt P27797 18-417); assay: SPR, forced degradation: Chem Ox
T2 construct: also called human CALRdel52
T2 sequence (looked up): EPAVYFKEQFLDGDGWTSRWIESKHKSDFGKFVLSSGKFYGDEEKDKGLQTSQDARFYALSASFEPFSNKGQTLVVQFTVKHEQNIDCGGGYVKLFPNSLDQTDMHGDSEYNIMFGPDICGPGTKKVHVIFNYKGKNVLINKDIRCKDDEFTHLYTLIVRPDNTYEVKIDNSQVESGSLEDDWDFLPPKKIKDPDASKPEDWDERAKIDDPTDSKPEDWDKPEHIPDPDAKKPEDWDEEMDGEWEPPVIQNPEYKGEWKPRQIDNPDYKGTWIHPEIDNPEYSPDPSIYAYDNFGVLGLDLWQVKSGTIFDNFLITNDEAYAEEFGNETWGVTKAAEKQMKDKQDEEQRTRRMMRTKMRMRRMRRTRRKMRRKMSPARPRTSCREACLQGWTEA

[3] = biological target: T3, Avi/his-CalR-Ins5 (CALRW28.004) (human, UniProt P27797 18-417, limits assumed); assay: SPR, forced degradation: Chem Ox
T3 construct: also called human CALRins5
T3 sequence (looked up): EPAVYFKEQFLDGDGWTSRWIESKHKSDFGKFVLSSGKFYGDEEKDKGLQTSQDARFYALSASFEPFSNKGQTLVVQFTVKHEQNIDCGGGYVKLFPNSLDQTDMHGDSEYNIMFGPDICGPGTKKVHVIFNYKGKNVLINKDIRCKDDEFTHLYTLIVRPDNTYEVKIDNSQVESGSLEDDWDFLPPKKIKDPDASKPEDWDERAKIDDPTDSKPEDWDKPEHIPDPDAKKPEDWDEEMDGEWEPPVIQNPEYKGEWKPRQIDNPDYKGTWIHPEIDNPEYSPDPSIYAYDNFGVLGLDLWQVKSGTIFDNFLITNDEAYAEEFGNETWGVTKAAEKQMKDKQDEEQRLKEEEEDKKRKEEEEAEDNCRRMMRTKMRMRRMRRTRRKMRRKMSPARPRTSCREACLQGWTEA

[4] = biological target: T4, CD3EG-HSA-6xHis (CD3W220.002) (human, UniProt P07766 22-118; P09693 23-103); assay: SPR, forced degradation: Chem Ox
T4 construct: also called human CD3; not shown: human serum albumin (HSA); 6xHis tag
T4 sequence (P07766 other isoform, or with tags, fused parts or gaps): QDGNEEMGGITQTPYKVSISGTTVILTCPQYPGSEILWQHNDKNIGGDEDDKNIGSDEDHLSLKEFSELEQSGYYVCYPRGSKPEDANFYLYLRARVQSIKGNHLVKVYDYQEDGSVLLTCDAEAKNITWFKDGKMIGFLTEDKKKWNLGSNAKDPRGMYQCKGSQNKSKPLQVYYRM

[5] = biological target: T5, CALRins5 (mutant calreticulin, 5 base pair insertion, Type 2) expressed with MPL on engineered cancer cells (UniProt P27797 18-417); assay: flow cytometry on ELF-153 MPL CALRins5 cells, 1 h at 37 C, AF647 secondary antibody, Geometric Mean
T5 construct: whole, on cells; On the cell surface in complex with MPL; also called OCI-M2 MPL CALRins5
T5 sequence (looked up): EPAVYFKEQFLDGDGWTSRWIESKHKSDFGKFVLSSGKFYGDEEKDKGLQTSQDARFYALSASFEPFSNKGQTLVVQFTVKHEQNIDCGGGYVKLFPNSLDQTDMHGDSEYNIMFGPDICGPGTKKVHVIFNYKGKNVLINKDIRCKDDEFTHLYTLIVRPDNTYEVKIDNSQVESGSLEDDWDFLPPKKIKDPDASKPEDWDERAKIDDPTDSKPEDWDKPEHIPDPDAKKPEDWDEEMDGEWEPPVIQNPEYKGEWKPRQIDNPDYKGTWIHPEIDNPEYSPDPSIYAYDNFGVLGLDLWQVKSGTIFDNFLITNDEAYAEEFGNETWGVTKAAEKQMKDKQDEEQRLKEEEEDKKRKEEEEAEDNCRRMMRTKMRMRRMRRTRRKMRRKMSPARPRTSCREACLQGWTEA
Procedure: FIGS. 21A-21F depict binding of different CALRmutxCD3 bispecific antibodies to CALRmut-negative or CALRmut-positive cells. Flow cytometry was used to evaluate CALRmutxCD3 binding to CALRmut-negative and CALRmut-positive cancer cells in vitro. CALRmutxCD3 antibodies were tested on a panel of cell lines, engineered to express MPL and CALRmut, after 1 hour 37° C. incubation, with subsequent incubation with secondary AF647-labeled antibody. Geometric mean fluorescence intensity of AF647 was measured to determine antibody binding.

binding result [1]: no binding (tested: 100 nM)
% Active [2]: 94%
Kd [2]: 70 pM
% Active [3]: 94%
Kd [3]: 40.8 pM
% Active [4]: 95%
Kd [4]: 306 pM
EC50 (read off the curve) [5]: ~2000 pM
B1: C3CRB73 CALRmut x CD3 bispecific antibody (bispecific antibody, human IgG1, kappa, L234A L235A)
heavy: EVQLLESGGGLVQPGGSLRLSCAVSGIDLSNNAISWVRQAPGKGLEYVGVIGNTGDTYYADSAKGRFTISRDSSKTTLYLQMNSLRAEDTAVYFCVRGPPSYSSSVKNIWGQGTLVTVSSASTKGPSVFPLAPSSKSTSGGTAALGCLVKDYFPEPVTVSWNSGALTSGVHTFPAVLQSSGLYSLSSVVTVPSSSLGTQTYICNVNHKPSNTKVDKKVEPKSCDKTHTCPPCPAPEAAGGPSVFLFPPKPKDTLMISRTPEVTCVVVSVSHEDPEVKFNWYVDGVEVHNAKTKPREEQYNSTYRVVSVLTVLHQDWLNGKEYKCKVSNKALPAPIEKTISKAKGQPREPQVYTLPPSREEMTKNQVSLSCAVKGFYPSDIAVEWESNGQPENNYKTTPPVLDSDGSFFLVSKLTVDKSRWQQGNVFSCSVMHEALHNRFTQKSLSLSPGK
light: DIQMTQSPSSVSASVGDRVTITCQSSQSVYNNNWLSWLQQKPGKAPKRLIYDASKLESGVPSRFSGSGSGTDFTLTISSVQPEDAATYYCAGGFTGNVYTFGGGTKVEIKRTVAAPSVFIFPPSDEQLKSGTASVVCLLNNFYPREAKVQWKVDNALQSGNSQESVTEQDSKDSTYSLSSTLTLSKADYEKHKVYACEVTHQGLSSPVTKSFNRGEC
scFv: DIQMTQSPSSLSASVGDRVTITCRARQSIGTAIHWYQQKPGCAPKLLIKYASESISGVPSRFSGSGSGTDFTLTISSLQPEDFATYYCQQSGSWPYTFGQGTKLEIKGGGSGGSGGCPPCGGSGGEVQLVESGGGLVKPGGSLRLSCAASGFTFSRYNMNWVRQAPGKGLEWVSSISTSSNYIYYADSVKGRFTFSRDNAKNSLDLQMSGLRAEDTAIYYCTRGWGPFDYWGCGTLVTVSSEPKSSDKTHTCPPCPAPEAAGGPSVFLFPPKPKDTLMISRTPEVTCVVVSVSHEDPEVKFNWYVDGVEVHNAKTKPREEQYNSTYRVVSVLTVLHQDWLNGKEYKCKVSNKALPAPIEKTISKAKGQPREPQVYTLPPSREEMTKNQVSLWCLVKGFYPSDIAVEWESNGQPENNYKTTPPVLDSDGSFFLYSKLTVDKSRWQQGNVFSCSVMHEALHNHYTQKSLSLSPGK
notes: IgG1-AAS; also called JNJ-88549968; CALRB421 Fab x CD3 spFv
